Test results from article PMC11409674, “Raffinocyclicin is a novel plasmid-encoded circular bacteriocin produced by Lactococcus raffinolactis with broad-spectrum activity against many gram-positive food pathogens” (Applied and environmental microbiology, 2024).

How the values were obtained:
[1] = tested on: proteases; set-up: method as in 4 sources, ref 33 = [33]; PMID 21948835; doi:10.1128/AEM.06348-11; 33 Masuda Y Ono H Kitagawa H Ito H Mu F Sawa N Zendo T Sonomoto K Identification and characterization of leucocyclicin Q, a novel cyclic bacteriocin produced by Leuconostoc mesenteroides TK41401 Appl ||| ref 27 = [27]; PMID 21057028; doi:10.1128/AEM.01173-10; 27 Borrero J Brede DA Skaugen M Diep DB Herranz C Nes IF Cintas LM Hernández PE Characterization of garvicin ML, a novel circular bacteriocin produced by Lactococcus garvieae DCC43, isolated from mall ||| ref 30 = [30]; PMID 29177092; doi:10.1099/mgen.0.000134; 30 van Heel AJ Montalban-Lopez M Oliveau Q Kuipers OP Genome-guided identification of novel head-to-tail cyclized antimicrobial peptides, exemplified by the discovery of pumilarin Microb Genom 2017 3 ||| ref 29 = [29]; PMID 18552180; doi:10.1128/AEM.00817-08; 29 Martin-Visscher LA van Belkum MJ Garneau-Tsodikova S Whittal RM Zheng J McMullen LM Vederas JC Isolation and characterization of carnocyclin A, a novel circular bacteriocin produced by Carnobacteri; settings: cited from earlier work
[2] = target: T1, proteinase K (Parengyodontium album, UniProt P06873); experiment: residual antimicrobial activity after proteinase K treatment; format: in vitro ADME; settings: proteinase K 1 mg/mL, 37 °C, 4 h
T1 construct: purchased Sigma-Aldrich, St Louis, USA
T1 sequence (P06873 106-384): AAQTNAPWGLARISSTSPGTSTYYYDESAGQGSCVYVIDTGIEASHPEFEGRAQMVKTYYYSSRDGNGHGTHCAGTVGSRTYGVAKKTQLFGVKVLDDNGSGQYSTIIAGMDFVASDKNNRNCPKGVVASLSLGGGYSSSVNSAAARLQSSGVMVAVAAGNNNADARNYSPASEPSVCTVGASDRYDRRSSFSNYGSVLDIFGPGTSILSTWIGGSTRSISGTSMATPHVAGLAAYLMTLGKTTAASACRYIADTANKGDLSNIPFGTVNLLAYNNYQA

Row | Substance | antimicrobial activity after protease treatment [1] | loss of activity when treated with proteinase K ([2]; indicator L. lactis HP) | Phenotype ([2]; 40 µL spotted around chloroform-inactivated producer spot, overlay L. lactis HP, 30 °C, 24 h) | Residual activity ([2]; 40 µL spotted around chloroform-inactivated producer spot, overlay L. lactis HP, 30 °C, 24 h, true halo treated/control (10 mM PBS pH 7.4) × 100)
1 | carnocyclin A (LVAYGIAQGTAEKVVSLINAGLTVGSIISILGGVTVGLSGVFTAVKAAIAKQGIKKAIQL; UniProt B2MVM5 5-64, looked up) [circular bacteriocin] | completely abolished | – | – | –
2 | raffinocyclicin | – | over 90% | S | 7%
